Here are results for six molecules from patent US20120082682A1 (GlaxoSmithKline, published 2012).

For orientation: Kd means the equilibrium constant for the complex coming apart. One may read the koff as the first-order rate constant of dissociation. A word on the kon: it is the second-order rate constant of association.

Assay [1] has as its target T1, cyno IL-13 (recombinant E. coli-expressed) (cynomolgus, UniProt Q0PW92 21-132).
T1 construct: also called cynomolgus IL-13
In words: Biacore T100 SPR, Protein A capture (CM5), cyno IL13 analyte, 1:1 fit; 'Impossible off-rates'. As for the experimental part:
(§1) Protein A was immobilised on a CM5 chip by primary amine coupling; this surface was used as a capture surface for the antibody molecules to be tested. […] All binding curves were double referenced with a 0 nM injection (i.e. buffer alone).
(§2) Regeneration of the Protein A surface was with 50 mM NaOH. The assay was run at 25° C. using HBS-EP as running buffer. The data was fitted to 1:1 model inherent to the Biacore T100 analysis software.

In assay [2] the target is T2, human IL-13 (recombinant E. coli-expressed) (human, UniProt P35225 35-146).
T2 construct: also called hIL-13
Briefly: Biacore T100 SPR, Protein A capture (CM5), human IL13 analyte, 1:1 fit. The procedure:
as §1, §2

Assay [3] has as its target T2, human IL-13 (recombinant E. …). In words: Biacore T100 SPR, purified mAb captured on anti-human IgG, IL13 analyte, 1:1 fit. The source says:
(§3) Table 1 details the overall affinities (equilibrium dissociation constant KD) for the selected constructs from the ProteOn screen and the T100 run
Background: Surface plasmon resonance follows binding to a sensor surface in real time, without labels.

Assay [4] shares this target. In words: Biacore T100 SPR, mAb (supernatant) captured on anti-human IgG, IL13 analyte, 1:1 fit.
Description: as §3

The target is the same in assay [5]. Briefly: cell-based or functional assay.
Assay [6] shares this target. Briefly: Biacore T100 SPR, purified mAb captured on anti-human IgG, IL13 analyte, 1:1 fit.
Description: as §3
The source holds these as a separate data set.

Assay [7] has the same target. In words: ProteOn XPR36 SPR, mAb (supernatant) captured on anti-human IgG, IL13 analyte, 1:1 fit. The procedure:
The initial screen of CDRH3 mutants was carried out on the ProteOn XPR36 (Biorad). […] 3M MgCl₂ was used to regenerate the capture surface, removing the bound CDRH3 mutant antibodies ready for another cycle of capture and analyte injection. The data was fitted to the 1:1 model using the software inherent to the machine.

Assay [8] shares this target. Briefly: cell-based or functional assay. The source holds these as a separate data set.

T2 sequence (P35225 other isoform, or with tags, fused parts or gaps limits assumed): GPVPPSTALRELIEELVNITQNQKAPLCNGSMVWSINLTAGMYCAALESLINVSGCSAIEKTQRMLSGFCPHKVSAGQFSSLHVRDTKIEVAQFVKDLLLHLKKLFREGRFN

B1: BPC3215 (bispecific antibody, human IgG1, kappa)
heavy: not shown
light: DVLMTQSPSSLSASVGDRVTITCRSSQNIVHINGNTYLEWYQQKPGKAPKLLIYKISDRFSGVPSRFSGSGSGTDFTLTISSLQPEDFATYYCFQGSHVPWTFGQGTKLEIKRTVAAPSVFIFPPSDEQLKSGTASVVCLLNNFYPREAKVQWKVDNALQSGNSQESVTEQDSKDSTYSLSSTLTLSKADYEKHKVYACEVTHQGLSSPVTKSFNRGEC
notes: mAbdAb with the re-humanised light chain P1
On to B1, for which, in assay [1], the Kd came to 0.00955 nM, the koff turned out to be 3.13e-06 s⁻¹ and the kon came out at 328000 M⁻¹ s⁻¹. Also, in assay [2], the Kd amounted to 0.064 nM, the koff came to 5.23e-05 s⁻¹ and the kon stood at 822000 M⁻¹ s⁻¹.

B2: A1Y100B AlaL1 (antibody, human IgG1, kappa, V domains shown)
VH: QVQLVQSGAEVKKPGSSVKVSCKASGFYIKDTYMHWVRQAPGQGLEWMGTIDPANGNTKYVPKFQGRVTITADESTSTAYMELSSLRSEDTAVYYCARSIYDDYHADDYYAMDYWGQGTLVTVSS
VL: DIVMTQSPLSLPVTPGEPASISCRSSQNIVHINGNTYLEWYLQKPGQSPRLLIYKISDRFSGVPDRFSGSGSGTDFTLKISRVEADDVGIYYCFQGSHVPWTFGQGTKLEIKR
notes: CDRH3 variant of A1L1
B2: the Kd in assay [3] amounted to 0.032 nM; in assay [4], 0.083 nM; in assay [6], 0.031 nM; in assay [7] it was 0.075 nM. Also, the koff in assay [3] was 2.58e-05 s⁻¹; in assay [6] it was 3e-05 s⁻¹. Also, the kon was 810000 M⁻¹ s⁻¹ in assay [3] and 960000 M⁻¹ s⁻¹ in assay [6]. Also, the “ND50 (nM), TF-1 cell proliferation bioassay” value (from here on “ND50 (nM)”) in assay [5] is 0.92 nM.

B3: A1Y100B IleL1 (antibody, human IgG1, kappa, V domains shown)
VH: QVQLVQSGAEVKKPGSSVKVSCKASGFYIKDTYMHWVRQAPGQGLEWMGTIDPANGNTKYVPKFQGRVTITADESTSTAYMELSSLRSEDTAVYYCARSIYDDYHIDDYYAMDYWGQGTLVTVSS
VL: DIVMTQSPLSLPVTPGEPASISCRSSQNIVHINGNTYLEWYLQKPGQSPRLLIYKISDRFSGVPDRFSGSGSGTDFTLKISRVEADDVGIYYCFQGSHVPWTFGQGTKLEIKR
notes: CDRH3 variant of A1L1
In the case of B3, the Kd in assay [3] was determined as 0.043 nM; in assay [4], 0.073 nM; in assay [6] it was 0.049 nM; in assay [7], 0.075 nM. For the same molecule, the off-rate constant (koff) in assay [3] worked out at 4.21e-05 s⁻¹; in assay [6], 5.58e-05 s⁻¹. Besides, the figures for the kon in assay [3] and in assay [6] were 989000 M⁻¹ s⁻¹ and 1.15e+06 M⁻¹ s⁻¹, respectively. The “ND50 (nM)” value in assay [5] is 1.1 nM.

B4: A1Y100B TrpL1 (antibody, human IgG1, kappa, V domains shown)
VH: QVQLVQSGAEVKKPGSSVKVSCKASGFYIKDTYMHWVRQAPGQGLEWMGTIDPANGNTKYVPKFQGRVTITADESTSTAYMELSSLRSEDTAVYYCARSIYDDYHWDDYYAMDYWGQGTLVTVSS
VL: DIVMTQSPLSLPVTPGEPASISCRSSQNIVHINGNTYLEWYLQKPGQSPRLLIYKISDRFSGVPDRFSGSGSGTDFTLKISRVEADDVGIYYCFQGSHVPWTFGQGTKLEIKR
notes: CDRH3 variant of A1L1
With B4, the Kd in assay [3] came to 0.053 nM; in assay [4], 0.095 nM; in assay [6], 0.063 nM; in assay [7], 0.068 nM. The off-rate (koff) in assay [3] was 0.000125 s⁻¹; in assay [6], 0.000163 s⁻¹. Moreover, the results for the kon in assay [3] and in assay [6] were 2.38e+06 M⁻¹ s⁻¹ and 2.57e+06 M⁻¹ s⁻¹, respectively. For the same molecule, in assay [5], the “ND50 (nM)” value was found to be 1.25 nM.

B5: BPC1624 (bispecific antibody, human IgG1, kappa)
heavy: not shown
light: DIVMTQSPLSLPVTPGEPASISCRSSQNIVHINGNTYLEWYLQKPGQSPRLLIYKISDRFSGVPDRFSGSGSGTDFTLKISRVEADDVGIYYCFQGSHVPWTFGQGTKLEIKRTVAAPSVFIFPPSDEQLKSGTASVVCLLNNFYPREAKVQWKVDNALQSGNSQESVTEQDSKDSTYSLSSTLTLSKADYEKHKVYACEVTHQGLSSPVTKSFNRGEC
Take B5: the “ND50 human IL-13, TF-1 cell proliferation bioassay” value in assay [8] came to 0.553 nM.

B6: BPC1625 (bispecific antibody, human IgG1, kappa)
heavy: not shown
light: DIVMTQSPLSLPVTPGEPASISCRSSQNIVHINGNTYLEWYLQKPGQSPRLLIYKISDRFSGVPDRFSGSGSGTDFTLKISRVEADDVGIYYCFQGSHVPWTFGQGTKLEIKRTVAAPSVFIFPPSDEQLKSGTASVVCLLNNFYPREAKVQWKVDNALQSGNSQESVTEQDSKDSTYSLSSTLTLSKADYEKHKVYACEVTHQGLSSPVTKSFNRGEC
As to B6, the “ND50 human IL-13, TF-1 cell proliferation bioassay” value in assay [8] stood at 0.542 nM.
